Tests used:
Conditions in all cases: both partners purified
[1] = target: T1, recombinant human PCSK9 with 6x His tag (proprotein convertase subtilisin/kexin type-9) (human, UniProt Q8NBP7 31-692); assay: BLI; BLItz system; PCSK9-His (hPCSK9, 500 nM, 120 s loading) immobilised on an anti-Penta-HIS sensor; association 120 s, dissociation 120 s; sensorgrams fit globally to a 1:1 binding model
T1 construct: proprotein convertase subtilisin/kexin type-9 (PCSK9), human, recombinant; written here as one chain; also called rhPCSK9-His; PCSK9-His

[2] = target: T2, recombinant human PKCδ (protein kinase C delta) (human, UniProt Q05655 1-676); assay: BLI; BLItz system; CAP1-mFc immobilised on an anti-mouse IgG Fc (AMC) sensor; Syk or PKCδ in the association step (120 s), dissociation 120 s; global 1:1 binding model
T2 construct: protein kinase C delta (PKCδ), human, recombinant; also called rhPKCδ; source: bought: Abcam (ab60844)
T2 sequence (Q05655 whole entry, stated change not applied): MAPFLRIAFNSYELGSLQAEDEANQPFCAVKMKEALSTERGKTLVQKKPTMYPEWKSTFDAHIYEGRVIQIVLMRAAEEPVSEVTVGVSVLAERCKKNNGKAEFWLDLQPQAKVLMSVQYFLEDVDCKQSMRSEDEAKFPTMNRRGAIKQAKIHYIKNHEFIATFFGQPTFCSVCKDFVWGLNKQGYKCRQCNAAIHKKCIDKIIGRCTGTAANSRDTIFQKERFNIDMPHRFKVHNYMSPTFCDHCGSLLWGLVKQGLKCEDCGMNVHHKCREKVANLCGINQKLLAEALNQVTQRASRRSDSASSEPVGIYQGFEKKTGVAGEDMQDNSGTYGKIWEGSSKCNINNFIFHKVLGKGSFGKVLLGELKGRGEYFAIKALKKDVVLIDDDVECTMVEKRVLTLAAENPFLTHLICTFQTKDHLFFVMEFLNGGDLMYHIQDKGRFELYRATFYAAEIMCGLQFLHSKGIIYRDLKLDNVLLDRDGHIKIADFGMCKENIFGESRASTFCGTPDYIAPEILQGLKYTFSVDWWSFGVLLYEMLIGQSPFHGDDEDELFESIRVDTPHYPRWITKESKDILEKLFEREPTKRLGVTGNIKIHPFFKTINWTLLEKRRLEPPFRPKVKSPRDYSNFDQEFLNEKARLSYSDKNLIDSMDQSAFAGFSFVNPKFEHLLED

[3] = target: T3, recombinant human Syk (spleen tyrosine kinase) (human, UniProt P43405 1-635); assay: as above
T3 construct: spleen tyrosine kinase (Syk), human, recombinant; also called rhSyk; source: bought: Abcam (ab60886)

B1: recombinant human CAP1 (adenylyl cyclase-associated protein 1) (natural protein, UniProt Q01518 1-475, looked up)
chain: MADMQNLVERLERAVGRLEAVSHTSDMHRGYADSPSKAGAAPYVQAFDSLLAGPVAEYLKISKEIGGDVQKHAEMVHTGLKLERALLVTASQCQQPAENKLSDLLAPISEQIKEVITFREKNRGSKLFNHLSAVSESIQALGWVAMAPKPGPYVKEMNDAAMFYTNRVLKEYKDVDKKHVDWVKAYLSIWTELQAYIKEFHTTGLAWSKTGPVAKELSGLPSGPSAGSCPPPPPPCPPPPPVSTISCSYESASRSSLFAQINQGESITHALKHVSDDMKTHKNPALKAQSGPVRSGPKPFSAPKPQTSPSPKRATKKEPAVLELEGKKWRVENQENVSNLVIEDTELKQVAYIYKCVNTTLQIKGKINSITVDNCKKLGLVFDDVVGIVEIINSKDVKVQVMGKVPTISINKTDGCHAYLSKNSLDCEIVSAKSSEMNVLIPTEGGDFNEFPVPEQFKTLWNGQKLVTTVTEIAG
notes: adenylyl cyclase-associated protein 1 (CAP1), human, recombinant; also called rhCAP1; hCAP1; source: bought: Abnova (H00010487-P01)
B1 showed a Kd [1] of 32 nM.

B2: human CAP1 whose carboxyl-terminal end was conjugated with the Fc region of mouse immunoglobulin (Fc fusion, UniProt Q01518 1-475, looked up)
chain: B1 chain
notes: adenylyl cyclase-associated protein 1 (CAP1), human; also called CAP1-mFc; hCAP1-mFc; source: Expi293F, transfected, purified to homogeneity; not shown: Fc (mouse immunoglobulin), C-terminal, kept
In the case of B2, the Kd [2] is reported as 322 nM and the Kd [3] is reported as 5.96 nM.

Source: paper PMC10981688, “PCSK9 stimulates Syk, PKCδ, and NF-κB, leading to atherosclerosis progression independently of LDL receptor” (Nature Communications, 2024)
